Data taken from paper PMC9758440.

Target: N-terminal SNAP-tagged FGFR1c on the surface of stable COS7 cells (human) (UniProt P11362)
Assay: FRET or BRET

N-terminal SNAP-tagged FGFR1c on the surface of stable COS7 cells (from UniProt P11362 22-822) (receptor)
fold increase of the TR-FRET signal with FGF2: 2.8 fold
